B1: ZmUGD (Zymomonas mobilis) (protein)
chain: MRITMIGSGYVGLVSGACFSDFGHNVICVDHDQEKIALLQKGVMPIYEPGLADMVANNVKAGRLSFSNDLASSVKDADAVFIAVGTPSRRGDGHADLSYVFAAAKEIAASVSDNTVVVDKSTVPVGTGDEVERIIREIAPDKKIWVASNPEFLREGAAIGDFKRPDRIVIGTENPEAREIMQEIYRPLYLNQSPILFTSRRSAELIKYASNAFLATKITFINEMADLCEAVGGDVQDVARGIGADNRIGSKFLHAGPGYGGSCFPKDTLALLKTAENFATPLRVVESVVTANNIRKRAMARKVLQAIGKDMRGQKIGLLGLTFKPNTDDMRDAPSLALIQGLEDAGAIIHAYDPEGMTQARPLLPNVVFEDEPYKVAEKAEALVIVTEWDAFRALDLKRIAGLLKTPLLLDLRNIYTEEEAKKAGLVYHGIGRPHAG
notes: N-terminal 6xHis tag (pRSFDuet-1), expressed in E. coli BL21 (DE3), crude soluble cell extract (host has a predicted own UGD)
B2: ChUGD (Capra hircus) (protein)
chain: MFEIKKICCIGAGYVGGPTCSVIAHMCPEIRVTVVDINESRINAWNSPTLPIYEPGLKEVVESCRGKNLFFSTNIDDAIKEADLVFISVNTPTKTYGMGKGRAADLKYIEACARRIVQNSHGYKIVTEKSTVPVRAAESIRRIFDANTKPNLNLQVLSNPEFLAEGTAIKDLKNPDRVLIGGDETPEGQRAVQALCAVYEHWVPREKILTTNTWSSELSKLTANAFLAQRISSINSISALCEATGADVEEVATAIGMDQRIGSKFLKASVGFGGSCFQKDVLNLVYLCEALNLPEVARYWQQVIDMNDYQRRRFASRIIDSLFNTVTDKKIAILGFAFKKDTGDTRESSSIYISKYLMDEGAHLHIYDPKVPREQIVVDLSHPGVSKDDQVARLVTISKDPYEACDGAHAVVICTEWDMFKELDYERIHKKMLKPAFIFDGRRVLDGLHNELQTIGFQIETIGKKVSSKRIPYAPSGEIPKFSLQDMPNKKPRV
notes: codon-optimized synthetic gene, N-terminal 6xHis tag, expressed in S. cerevisiae, crude soluble cell extract

Key:
Test in all cases: UDP-GlcA formation by UHPLC, Michaelis-Menten fit, crude extract
Settings in all cases: 0.5 mM NAD+, 50 mM Tris-HCl pH 8.0, 30 °C, 0.5 g/L extract protein, 1-5 mM UDP-Glc
[1] = substrate: O=c1ccn([C@@H]2O[C@H](CO[P@@](=O)(O)O[P@@](=O)(O)O[C@H]3O[C@H](CO)[C@@H](O)[C@H](O)[C@H]3O)[C@@H](O)[C@H]2O)c(=O)[nH]1; type: biochemical, Zymomonas mobilis
Excerpt: (§1) UDP-GlcA formation by UHPLC, Michaelis-Menten fit, crude extract on ZmUGD

[2] = substrate: O=c1ccn([C@@H]2O[C@H](CO[P@@](=O)(O)O[P@@](=O)(O)O[C@H]3O[C@H](CO)[C@@H](O)[C@H](O)[C@H]3O)[C@@H](O)[C@H]2O)c(=O)[nH]1; type: biochemical, Zymomonas mobilis; remark: listed apart in the source
Excerpt: as §1

[3] = substrate: O=c1ccn([C@@H]2O[C@H](CO[P@@](=O)(O)O[P@@](=O)(O)O[C@H]3O[C@H](CO)[C@@H](O)[C@H](O)[C@H]3O)[C@@H](O)[C@H]2O)c(=O)[nH]1; type: biochemical, Capra hircus
Excerpt: UDP-GlcA formation by UHPLC, Michaelis-Menten fit, crude extract on ChUGD

| Protein | Km [1] [µM] | Km [2] [µM] | Km [3] [µM] |
| --- | --- | --- | --- |
| B1 | 1234 | 2586 | – |
| B2 | – | – | 841 |

— PMC8617651, “Cloning, Expression and Characterization of UDP-Glucose Dehydrogenases” (Life, 2021)
